Ends that are not written are not given here. FAM = carboxyfluorescein (FAM) fluorescent label
T1: C-reactive protein (UniProt P02741 19-224)
T1 construct: also called CRP
T1 sequence (looked up): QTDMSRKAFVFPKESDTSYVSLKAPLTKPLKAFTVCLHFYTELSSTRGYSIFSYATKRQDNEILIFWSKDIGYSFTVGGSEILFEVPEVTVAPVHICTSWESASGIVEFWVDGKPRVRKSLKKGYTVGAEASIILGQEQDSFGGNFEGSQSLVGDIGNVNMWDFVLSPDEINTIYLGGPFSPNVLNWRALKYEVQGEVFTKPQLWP

B1: L2 peptide (peptide)
peptide: {FAM}-VYYCFQGSHVPFTK
notes: Synthetic 14-mer homologous to the FR3 or FR4 region of the light chain; also called L2 switching peptide; second peptide compound L2
B2: L1 peptide (peptide)
peptide: TYLEWYPQKPGQSPKLLIYK
modifications: not fully specified (N-terminus)
notes: Synthetic 20-mer homologous to the FR2 region of the light chain; The label differs between experiments; also called L1 switching peptide; first peptide compound L1
B3: H2 peptide (peptide)
peptide: VYYCAREPTGTGIYFDVWGK
modifications: not fully specified (N-terminus)
notes: Synthetic 20-mer homologous to the FR3 or FR4 region of the heavy chain; The label differs between experiments; also called H2 switching peptide; fourth peptide compound H2
B4: H1 peptide (peptide)
peptide: SYWIHWVKQRPGQGLEWIGE
modifications: not fully specified (N-terminus)
notes: Synthetic 20-mer homologous to the FR2 region of the heavy chain; The fluorescent label differs between experiments; also called H1 switching peptide; third peptide compound H1

Legend:
[1] = molecular target: T2, anti-Inf-A binding antibody; assay: dissociation of labelled peptide from anti-Inf-A antibody on treatment with Inf-A; fluorescence
T2 construct: also called anti-Inf-A antibody; anti-inf A antibody

[2] = molecular target: T3, anti-Inf-B binding antibody; assay: dissociation of labelled peptide from anti-Inf-B antibody on treatment with Inf-B; fluorescence
T3 construct: also called anti-Inf-B antibody

Anti-HRP antibody(r) [3] = molecular target: T4, Anti-HRP antibody(r); assay: fluorescence in solution against HRP concentration (0.3 to 100 µM); peptide on immobilised rabbit anti-HRP antibody
T4 construct: Rabbit IgG, immobilised on a microplate; also called rabbit anti-HRP antibodies; anti-HRP antibody from a rabbit
From the text: In this experiment, an anti-HRP antibody from a rabbit immobilized on a microplate was used as the binding antibody and HRP was used as the antigen.

Anti-hCG antibody(m) = molecular target: T5, Anti-hCG antibody(m); assay: labelled peptide on antibody immobilised on microplate; antigen hCG
T5 construct: also called mouse IgG (hCG)

BSA = molecular target: T6, BSA (UniProt P02769 25-607); assay: labelled peptide on protein immobilised on microplate; fluorescence at bottom
T6 construct: also called bovine serum albumin

C-reactive protein = molecular target: T1, C-reactive protein; assay: as above
protein-A = protein-A (UniProt P38507 37-477); assay: as above
Anti-CRP antibody(r) = molecular target: T7, Anti-CRP antibody(r); assay: labelled peptide on antibody immobilised on microplate; antigen CRP
T7 construct: also called rabbit IgG (CRP)

Anti-HRP antibody(r) [4] = molecular target: T4, Anti-HRP antibody(r); assay: labelled peptide on immobilised rabbit anti-HRP antibody, papain cleavage
Anti-HRP antibody(r) [5] = molecular target: T4, Anti-HRP antibody(r); assay: labelled peptide on antibody immobilised on microplate; antigen HRP
Anti-HBsAg antibody(g) = molecular target: T8, Anti-HBsAg antibody(g); assay: labelled peptide on antibody immobilised on microplate; antigen HBsAg
T8 construct: also called anti-HBsAg antibodies from goats; goat IgG (HBsAg)

[6] = molecular target: T2, anti-Inf-A binding antibody; assay: SPR biosensor, anti-Inf-A antibody immobilised on Au substrate, BSA blocked
From the text: Referring to FIG. 17A, anti-Inf-A and anti-Inf-B binding antibodies were immobilized on an Au substrate using an SPR biosensor, and the blank surface of the substrate was blocked with a BSA solution to treat Inf-A and Inf-B.

H2 peptide = molecular target: B3; assay: FRET on microplate: FAM-L1 immobilised, TAMRA-H2 incubated
[7] = molecular target: T3, anti-Inf-B binding antibody; assay: SPR biosensor, anti-Inf-B antibody immobilised on Au substrate, BSA blocked
L2 peptide = molecular target: B1; assay: FRET on microplate: FAM-L2 immobilised, TAMRA-H1 incubated

T6 sequence (P02769 25-607 limits assumed): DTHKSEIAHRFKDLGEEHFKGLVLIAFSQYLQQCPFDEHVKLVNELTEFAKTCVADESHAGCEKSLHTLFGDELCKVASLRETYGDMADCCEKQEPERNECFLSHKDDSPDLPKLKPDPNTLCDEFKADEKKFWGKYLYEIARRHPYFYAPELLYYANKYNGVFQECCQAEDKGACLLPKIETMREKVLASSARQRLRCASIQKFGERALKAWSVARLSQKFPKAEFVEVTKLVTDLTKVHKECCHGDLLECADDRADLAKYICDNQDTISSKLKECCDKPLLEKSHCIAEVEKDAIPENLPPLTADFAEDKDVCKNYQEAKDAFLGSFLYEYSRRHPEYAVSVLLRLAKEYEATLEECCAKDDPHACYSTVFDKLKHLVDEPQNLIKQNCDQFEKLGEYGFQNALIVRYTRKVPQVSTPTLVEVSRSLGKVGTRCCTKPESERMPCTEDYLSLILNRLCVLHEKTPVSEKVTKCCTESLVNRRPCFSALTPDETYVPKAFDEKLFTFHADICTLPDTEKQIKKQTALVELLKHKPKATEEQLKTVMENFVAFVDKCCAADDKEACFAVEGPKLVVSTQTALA

Binder	relative change in fluorescence signal [1]	relative change in fluorescence signal [2]	Kd (Anti-HRP antibody(r) [3])	change (%) of fluorescence at bottom (B) of microplate (Anti-hCG antibody(m))	change (%) of fluorescence in solution (S) (Anti-hCG antibody(m))	fluorescence intensity at bottom (B) of microplate after antigen binding (Anti-hCG antibody(m))	fluorescence intensity at bottom (B) of microplate before antigen binding (Anti-hCG antibody(m))	fluorescence intensity in solution (S) after antigen binding (Anti-hCG antibody(m))	fluorescence intensity in solution (S) before antigen binding (Anti-hCG antibody(m))	binding result (BSA)	binding result (C-reactive protein)	binding result (protein-A)	change (%) of fluorescence at bottom (B) of microplate (Anti-CRP antibody(r))	change (%) of fluorescence in solution (S) (Anti-CRP antibody(r))	fluorescence intensity at bottom (B) of microplate after antigen binding (Anti-CRP antibody(r))	fluorescence intensity at bottom (B) of microplate before antigen binding (Anti-CRP antibody(r))	fluorescence intensity in solution (S) after antigen binding (Anti-CRP antibody(r))	fluorescence intensity in solution (S) before antigen binding (Anti-CRP antibody(r))	decrease of fluorescence intensity at the bottom of the microplate after papain treatment (Anti-HRP antibody(r) [4])	increase of fluorescence intensity in the solution after papain treatment (Anti-HRP antibody(r) [4])	also measured
B1	225%	151%	1.48 µM	-90.7%	456%	3070	33200	9400	1690	no binding	no binding	no binding	-44.9%	883%	11200	20400	32200	3270	72.5%	2450%	change (%) of fluorescence at bottom (B) of microplate (Anti-HRP antibody(r) [5]): -74.5%; change (%) of fluorescence in solution (S) (Anti-HRP antibody(r) [5]): 597%; fluorescence intensity at bottom (B) of microplate after antigen binding (Anti-HRP antibody(r) [5]): 3210; fluorescence intensity at bottom (B) of microplate before antigen binding (Anti-HRP antibody(r) [5]): 12600; fluorescence intensity in solution (S) after antigen binding (Anti-HRP antibody(r) [5]): 16100; fluorescence intensity in solution (S) before antigen binding (Anti-HRP antibody(r) [5]): 2320; change (%) of fluorescence at bottom (B) of microplate (Anti-HBsAg antibody(g)): -64.8%; change (%) of fluorescence in solution (S) (Anti-HBsAg antibody(g)): 574%; fluorescence intensity at bottom (B) of microplate after antigen binding (Anti-HBsAg antibody(g)): 9860; fluorescence intensity at bottom (B) of microplate before antigen binding (Anti-HBsAg antibody(g)): 28000; fluorescence intensity in solution (S) after antigen binding (Anti-HBsAg antibody(g)): 15400; fluorescence intensity in solution (S) before antigen binding (Anti-HBsAg antibody(g)): 2280
B2	176%	180%	3.29 µM	-61.6%	187%	1780	4630	3580	1250	no binding	no binding	no binding	-48.6%	778%	3460	6720	6500	741	84.8%	1030%	Kd [6]: 14 µM; binding result (H2 peptide): binds; Kd [7]: 14 µM; change (%) of fluorescence at bottom (B) of microplate (Anti-HRP antibody(r) [5]): -87.3%; change (%) of fluorescence in solution (S) (Anti-HRP antibody(r) [5]): 357%; fluorescence intensity at bottom (B) of microplate after antigen binding (Anti-HRP antibody(r) [5]): 1990; fluorescence intensity at bottom (B) of microplate before antigen binding (Anti-HRP antibody(r) [5]): 15600; fluorescence intensity in solution (S) after antigen binding (Anti-HRP antibody(r) [5]): 12300; fluorescence intensity in solution (S) before antigen binding (Anti-HRP antibody(r) [5]): 2690; change (%) of fluorescence at bottom (B) of microplate (Anti-HBsAg antibody(g)): -51.3%; change (%) of fluorescence in solution (S) (Anti-HBsAg antibody(g)): 638%; fluorescence intensity at bottom (B) of microplate after antigen binding (Anti-HBsAg antibody(g)): 5390; fluorescence intensity at bottom (B) of microplate before antigen binding (Anti-HBsAg antibody(g)): 11100; fluorescence intensity in solution (S) after antigen binding (Anti-HBsAg antibody(g)): 20500; fluorescence intensity in solution (S) before antigen binding (Anti-HBsAg antibody(g)): 2780
B3	352%	199%	3.11 µM	-88.5%	416%	23300	23300	8540	1650	no binding	no binding	no binding	-39.5%	677%	22200	22200	16300	2100	58.7%	2360%	Kd [6]: 37 µM; Kd [7]: 56 µM; change (%) of fluorescence at bottom (B) of microplate (Anti-HRP antibody(r) [5]): -85.2%; change (%) of fluorescence in solution (S) (Anti-HRP antibody(r) [5]): 698%; fluorescence intensity at bottom (B) of microplate after antigen binding (Anti-HRP antibody(r) [5]): 1810; fluorescence intensity at bottom (B) of microplate before antigen binding (Anti-HRP antibody(r) [5]): 122000; fluorescence intensity in solution (S) after antigen binding (Anti-HRP antibody(r) [5]): 18100; fluorescence intensity in solution (S) before antigen binding (Anti-HRP antibody(r) [5]): 2270; change (%) of fluorescence at bottom (B) of microplate (Anti-HBsAg antibody(g)): -36.1%; change (%) of fluorescence in solution (S) (Anti-HBsAg antibody(g)): 412%; fluorescence intensity at bottom (B) of microplate after antigen binding (Anti-HBsAg antibody(g)): 18800; fluorescence intensity at bottom (B) of microplate before antigen binding (Anti-HBsAg antibody(g)): 29400; fluorescence intensity in solution (S) after antigen binding (Anti-HBsAg antibody(g)): 9140; fluorescence intensity in solution (S) before antigen binding (Anti-HBsAg antibody(g)): 1780
B4	130%	145%	1.65 µM	-65.6%	206%	1940	5650	3920	1280	no binding	no binding	no binding	-26.8%	152%	3600	4910	5660	2240	84.3%	2180%	binding result (L2 peptide): binds; change (%) of fluorescence at bottom (B) of microplate (Anti-HRP antibody(r) [5]): -87.7%; change (%) of fluorescence in solution (S) (Anti-HRP antibody(r) [5]): 746%; fluorescence intensity at bottom (B) of microplate after antigen binding (Anti-HRP antibody(r) [5]): 1450; fluorescence intensity at bottom (B) of microplate before antigen binding (Anti-HRP antibody(r) [5]): 11800; fluorescence intensity in solution (S) after antigen binding (Anti-HRP antibody(r) [5]): 22000; fluorescence intensity in solution (S) before antigen binding (Anti-HRP antibody(r) [5]): 2600; change (%) of fluorescence at bottom (B) of microplate (Anti-HBsAg antibody(g)): -58.9%; change (%) of fluorescence in solution (S) (Anti-HBsAg antibody(g)): 410%; fluorescence intensity at bottom (B) of microplate after antigen binding (Anti-HBsAg antibody(g)): 4620; fluorescence intensity at bottom (B) of microplate before antigen binding (Anti-HBsAg antibody(g)): 11200; fluorescence intensity in solution (S) after antigen binding (Anti-HBsAg antibody(g)): 11500; fluorescence intensity in solution (S) before antigen binding (Anti-HBsAg antibody(g)): 2240

— patent US20250341517A1 (published 2025)
